# T1: mouse TNFR1 on L929 fibroblasts (mouse, UniProt P25118 30-454)
# T1 sequence (looked up): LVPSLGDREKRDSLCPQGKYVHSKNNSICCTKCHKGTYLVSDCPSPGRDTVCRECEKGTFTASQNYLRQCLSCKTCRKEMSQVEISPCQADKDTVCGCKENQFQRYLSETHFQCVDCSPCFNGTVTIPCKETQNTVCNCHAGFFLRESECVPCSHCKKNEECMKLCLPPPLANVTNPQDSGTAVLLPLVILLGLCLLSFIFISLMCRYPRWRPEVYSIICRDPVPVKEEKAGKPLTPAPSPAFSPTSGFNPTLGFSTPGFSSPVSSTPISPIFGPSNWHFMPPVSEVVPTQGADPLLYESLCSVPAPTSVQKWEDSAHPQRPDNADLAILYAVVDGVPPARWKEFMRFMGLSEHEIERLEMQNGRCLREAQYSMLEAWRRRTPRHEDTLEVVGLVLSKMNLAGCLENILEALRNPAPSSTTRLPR
# Molecular target: T1, mouse TNFR1 on L929 fibroblasts
# Assay: cell-based or functional assay
row,"Potency, ND50 L929 assay",Binder
1,1 nM,TAR2m-21-23 (anti-TNFR1 dAb monomer) (other) VH: EVQLLESGGGLVQPGGSLRLSCAASGFTFNRYSMGWLRQAPGKGLEWVSRIDSYGRGTYYEDPVKGRFSISRDNSKNTLYLQMNSLRAEDTAVYYCAKISQFGSNAFDYWGQGTQVTVSS
2,1 nM,"PEG DOM1M (anti-TNFR1 dAb monomer TAR2m21-23 PEGylated with a 40 kDa polyethyleneglycol) (other, PEGylated with a 40 kDa polyethyleneglycol (attachment site not stated)) VH: EVQLLESGGGLVQPGGSLRLSCAASGFTFNRYSMGWLRQAPGKGLEWVSRIDSYGRGTYYEDPVKGRFSISRDNSKNTLYLQMNSLRAEDTAVYYCAKISQFGSNAFDYWGQGTQVTVSS"
3,5 nM,TAR2m-15-12 (anti-TNFR1 dAb) (other) DIQMTQSPSSLSASVGDRVTITCRASQYIHTSVQWYQQKPGKAPKLLIYGSSRLHSGVPSRFSGSGSGTDFTLTISSLQPEDFATYYCQQNHYSPFTYGQGTKVEIKR

# — US20100034831A1 (DOMANTIS, published 2010)
